Key:
[1] = molecular target: T1, Cynomolgus CD3εδ Fc heterodimer (Cy CD3ε Fc / CD3δ Fc-HIS) (cynomolgus, UniProt Q95LI8 22-100); experiment: BLI (Octet), IgG on AHC sensor, pH 6.0
T1 chain 1: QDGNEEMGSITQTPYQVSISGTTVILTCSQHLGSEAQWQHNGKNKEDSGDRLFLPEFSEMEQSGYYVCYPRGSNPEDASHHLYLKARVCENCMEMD
T1 chain 2: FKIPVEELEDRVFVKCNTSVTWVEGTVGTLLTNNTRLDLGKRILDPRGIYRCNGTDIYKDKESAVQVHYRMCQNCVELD

[2] = molecular target: T1, Cynomolgus CD3εδ Fc heterodimer (Cy …); experiment: BLI (Octet), IgG on AHC sensor, pH 7.4
[3] = molecular target: T2, human CD3 on CD3+ Jurkat cells (human, UniProt P07766 23-207); experiment: flow cytometry, 100 nM IgG on CD3+ Jurkat cells, pH 7.4
T2 construct: whole, on cells; Native CD3 complex on cells; the other CD3 chains are not specified for this assay; also called Human CD3+ Jurkat
T2 sequence (P07766 23-207): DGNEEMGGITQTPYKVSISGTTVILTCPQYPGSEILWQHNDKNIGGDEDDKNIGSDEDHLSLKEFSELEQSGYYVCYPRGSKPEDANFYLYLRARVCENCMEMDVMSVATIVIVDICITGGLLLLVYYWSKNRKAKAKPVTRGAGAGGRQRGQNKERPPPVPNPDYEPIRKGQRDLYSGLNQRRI
Outline: (§1)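 Jurkat cells incubated 20 min on ice with 100 nM yeast-produced IgG in PBS + 0.1% BSA at pH 6.0 or pH 7.4, with all washes and staining at the same pH. Bound antibody detected with anti-human IgG-RPE, dead cells excluded by propidium iodide; MFI measured by flow cytometry.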

[4] = molecular target: T2, human CD3 on CD3+ Jurkat cells; experiment: flow cytometry on CD3+ Jurkat cells, ratio of MFI at pH 6.0 to pH 7.4
Outline: as §1

[5] = molecular target: T2, human CD3 on CD3+ Jurkat cells; experiment: flow cytometry, 100 nM IgG on CD3+ Jurkat cells, pH 6.0
Outline: as §1

Binder	koff [1] [s⁻¹]	Kd [2] [nM]	koff [2] [s⁻¹]	kon [2] [M⁻¹ s⁻¹]	MFI pH 7.4 [3] [MFI]	MFI pH 6.0/MFI pH 7.4 [4]	MFI pH 6.0 [5] [MFI]
SAD10319_P01_E02 (ADI-57304) (antibody, V domains shown, IgG; also called Ab240) VH: QVQLVQSGAEVKKPGASVKVSCKASGYTFTSDFMHWVRQAPGQRLEWMGWINPATGATKYSQKFQGRVTITRDTSASTAYMELSSLRSEDTAVYYCARDAYGHYFYDHWGQGTLVTVSS VL: DIVMTQSPDSLAVSLGERATINCKSSQSLLNARTGKNYLAWYQQKPGQPPKLLIYWASTRESGVPDRFSGSGSGTDFTLTISSLQAEDVAVYYCKQSYSRRTFGGGTKVEIK	0.0248	145	0.0355	245000			
SAD10319_P03_E09 (ADI-48640) (antibody, V domains shown, IgG; also called Ab26) VH: QVQLVQSGAEVKKPGASVKVSCKASGYTFLSYDMHWVRQAPGQRLEWMGWIDAGTGATTYSQKFQGRVTITRDTSASTAYMELSSLRSEDTAVYYCARDAYHHYFYDVWGQGTLVTVSS VL: DIVMTQSPDSLAVSLGERATINCKSSQSLLNARTGKNYLAWYQQKPGQPPKLLIYWASTRESGVPDRFSGSGSGTDFTLTISSLQAEDVAVYYCKQSYSRRTFGGGTKVEIK					56	13.8	772
SAD10319_P04_G11 (ADI-48641) (antibody, V domains shown, IgG; also called Ab39) VH: QVQLVQSGAEVKKPGASVKVYCKASGYTFTTYEMHWVRQAPGQRLEWMGSINAGDANTKYSQKFQGRVTITRDTSASTAYMELSSLRSEDTAVYYCARDAYHHYFYDVWGQGTLVTVSS VL: DIVMTQSPDSLAVSLGERATINCKSSQSLLNARTGKNYLAWYQQKPGQPPKLLIYWASTRESGVPDRFSGSGSGTDFTLTISSLQAEDVAVYYCKQSYSRRTFGGGTKVEIK					52	1.1	59
SAD10319_P04_B10 (ADI-57332) (antibody, V domains shown, IgG; also called Ab30) VH: QVQLVQSGAEVKKPGASVKVSCKASGYTFTSTFMHWVRQAPGQRLEWMGFIDAGTGATKYSQKFQGRVTITRDTSASTAYMELSSLRSEDTAVYYCARDAYGHYFYDHWGQGTLVTVSS VL: DIVMTQSPDSLAVSLGERATINCKSSQSLLNARTGKNYLAWYQQKPGQPPKLLIYWASTRESGVPDRFSGSGSGTDFTLTISSLQAEDVAVYYCKQSYSRRTFGGGTKVEIK	0.0127	58.8	0.0199	338000			
SAD10319_P04_G10 (ADI-57334) (antibody, V domains shown, IgG; also called Ab32) VH: QVQLVQSGAEVKKPGASVKVSCKASGYTFTDYYMHWVRQAPGQRLEWMGWINPATGATAYSQKFQGRVTITRDTSASTAYMELSSLRSEDTAVYYCARDAYGHHFYDVWGQGTLVTVSS VL: DIVMTQSPDSLAVSLGERATINCKSSQSLLNARTGKNYLAWYQQKPGQPPKLLIYWASTRESGVPDRFSGSGSGTDFTLTISSLQAEDVAVYYCKQSYSRRTFGGGTKVEIK	0.015	62.6	0.0182	291000			
SAD10320_P01_E02 (ADI-57349) (antibody, V domains shown, IgG; also called Ab55) VH: QVQLVQSGAEVKKPGASVKVSCKASGFNIKDYYMHWVRQAPGQRLAWMGWIDLENANTIYDAKFQGRVTITRDTSASTAYMELSSLRSEDTAVYYCARDAYGRHFYDVWGQGTLVTVSS VL: DIVMTQSPDSLAVSLGERATINCKSSQSLLNARTGKNYLAWYQQKPGQPPKLLIYWASTRESGVPDRFSGSGSGTDFTLTISSLQAEDVAVYYCKQSYSRRTFGGGTKVEIK	0.00585	68.6	0.0208	304000			
SAD10319_P02_A06 (ADI-57320) (antibody, V domains shown, IgG; also called Ab8) VH: QVQLVQSGAEVKKPGASVKVSCKASGYTFDAYAMHWVRQAPGQRLEWMGWIDAGTGATKYSQKFQGRVTITRDTSASTAYMELSSLRSEDTAVYYCARDHYGHYFYDVWGQGTLVTVSS VL: DIVMTQSPDSLAVSLGERATINCKSSQSLLNARTGKNYLAWYQQKPGQPPKLLIYWASTRESGVPDRFSGSGSGTDFTLTISSLQAEDVAVYYCKQSYSRRTFGGGTKVEIK	0.0327	30.2	0.0115	383000			
SAD10319_P02_C06 (ADI-57322) (antibody, V domains shown, IgG; also called Ab10) VH: QVQLVQSGAEVKKPGASVKVSCKASGYTFTSYAMHWVRQAPGQRLEWMGWINPVTGATVYSQKFQGRVTITRDTSASTAYMELSSLRSEDTAVYYCARDAYGHYFYDVWGQGTLVTVSS VL: DIVMTQSPDSLAVSLGERATINCKSSQSLLNARTGKNYLAWYQQKPGQPPKLLIYWASTRESGVPDRFSGSGSGTDFTLTISSLQAEDVAVYYCKQSYSRRTFGGGTKVEIK	0.023	51.3	0.0255	496000			
SAD10319_P04_E12 (ADI-48642) (antibody, V domains shown, IgG; also called Ab43) VH: QVQLVQSGAEVKKPGASVKVSCKASGYTFTSYPMHWVRQAPGQRLEWMGWIDAGTGLTTYSQKFQGRVTITRDTSASTAYMELSSLRSEDTAVYYCARDHYHRYFYDMWGQGTLVTVSS VL: DIVMTQSPDSLAVSLGERATINCKSSQSLLNARTGKNYLAWYQQKPGQPPKLLIYWASTRESGVPDRFSGSGSGTDFTLTISSLQAEDVAVYYCKQSYSRRTFGGGTKVEIK					55	6.1	332
SAD10319_P02_H06 (ADI-48633) (antibody, V domains shown, IgG; also called Ab16) VH: QVQLVQSGAEVKKPGASVKVSCKASGYTFTAYVMHWVRQAPGQRLEWMGSIDAGTGNTKYSQKFQGRVTITRDTSASTAYMELSSLRSEDTAVYYCARDAYGHYFYDHWGQGTLVTVSS VL: DIVMTQSPDSLAVSLGERATINCKSSQSLLNARTGKNYLAWYQQKPGQPPKLLIYWASTRESGVPDRFSGSGSGTDFTLTISSLQAEDVAVYYCKQSYSRRTFGGGTKVEIK	0.0188	78	0.0171	220000			
SAD10320_P01_A03 (ADI-57353) (antibody, V domains shown, IgG; also called Ab60) VH: QVQLVQSGAEVKKPGASVKVSCKASGFNIKDYYMHWVRQAPGQRLEWMGWIDLENANTIYDAKFQGRVTITRDTSASTAYMELSSLRSEDTAVYYCARDHRGRYFYDVWGQGTLVTVSS VL: DIVMTQSPDSLAVSLGERATINCKSSQSLLNARTGKNYLAWYQQKPGQPPKLLIYWASTRESGVPDRFSGSGSGTDFTLTISSLQAEDVAVYYCKQSSHRRTFGGGTKVEIK	0.0271	78.4	0.0174	222000			
SAD10319_P02_F04 (ADI-57312) (antibody, V domains shown, IgG; also called Ab253) VH: QVQLVQSGAEVKKPGASVKVSCKASGYTFDSYTMHWVRQAPGQRLEWMGYINPDTGATYYSQKFQGRVTITRDTSASTAYMELSSLRSEDTAVYYCARDAYHHYFYDVWGQGTLVTVSS VL: DIVMTQSPDSLAVSLGERATINCKSSQSLLNARTGKNYLAWYQQKPGQPPKLLIYWASTRESGVPDRFSGSGSGTDFTLTISSLQAEDVAVYYCKQSYSRRTFGGGTKVEIK	0.0317	117	0.0301	257000			
SAD10319_P02_F06 (ADI-57324) (antibody, V domains shown, IgG; also called Ab13) VH: QVQLVQSGAEVKKPGASVKVSCKASGYTFLSYAMHWVRQAPGQRLERMGWINPSTGATDYSQKFQGRVTITRDTSASTAYMELSSLRSEDTAVYYCARDAYGHYFYDVWGQGTLVTVSS VL: DIVMTQSPDSLAVSLGERATINCKSSQSLLNARTGKNYLAWYQQKPGQPPKLLIYWASTRESGVPDRFSGSGSGTDFTLTISSLQAEDVAVYYCKQSYSRRTFGGGTKVEIK	0.0122	134	0.0331	247000			
SAD10319_P02_E06 (ADI-57323) (antibody, V domains shown, IgG; also called Ab12) VH: QVQLVQSGAEVKKPGASVKVSCKASGYTFADYAMHWVRQAPGQRLAWMGWINPHTGATFYSQKFQGRVTITRDTSASTAYMELSSLRSEDTAVYYCARDAYGRYFYDHWGQGTLVTVSS VL: DIVMTQSPDSLAVSLGERATINCKSSQSLLNARTGKNYLAWYQQKPGQPPKLLIYWASTRESGVPDRFSGSGSGTDFTLTISSLQAEDVAVYYCKQSYSRRTFGGGTKVEIK	0.00251	60.6	0.0267	440000			
SAD10319_P02_E04 (ADI-57311) (antibody, V domains shown, IgG; also called Ab252) VH: QVQLVQSGAEVKKPGASVKVSCKASGYTFESYYMHWVRQAPGQRLERMGSIVAGTGATKYSQKFQGRVTITRDTSASTAYMELSSLRSEDTAVYYCARDHYGRYFYDVWGQGTPVTVSS VL: DIVMTQSPDSLAVSLGERATINCKSSQSLLNARTGKNYLAWYQQKPGQPPKLLIYWASTRESGVPDRFSGSGSGTDFTLTISSLQAEDVAVYYCKQSYSRRTFGGGTKVEIK	0.0215	64.1	0.0208	324000			

Source: patent US20220380463A1 (Adimab, published 2022)
